The series deals with IRAV (FLJ11286) (UniProt Q9NUL5 1-269). Nature of the series: fluorescence polarization; FP: oligos in 100 mM KCl, 20 mM HEPES pH 7.4 (heated to 85 C, slow cooled); protein purified in 200 mM NaCl, 20 mM HEPES pH 7.4; assay temperature not stated. To be noted: protein: recombinant; tags: N-terminal His-MBP; label: 3'-FAM; single strand. (In fluorescence polarisation assays a small probe gives low polarisation when free and higher when bound to something large.)

Data on 2 molecules can be found in publication PMC5309953, “IRAV (FLJ11286), an Interferon-Stimulated Gene with Antiviral Activity against Dengue Virus, Interacts with MOV10”.

IRAV (FLJ11286), sequence (Q9NUL5 1-269): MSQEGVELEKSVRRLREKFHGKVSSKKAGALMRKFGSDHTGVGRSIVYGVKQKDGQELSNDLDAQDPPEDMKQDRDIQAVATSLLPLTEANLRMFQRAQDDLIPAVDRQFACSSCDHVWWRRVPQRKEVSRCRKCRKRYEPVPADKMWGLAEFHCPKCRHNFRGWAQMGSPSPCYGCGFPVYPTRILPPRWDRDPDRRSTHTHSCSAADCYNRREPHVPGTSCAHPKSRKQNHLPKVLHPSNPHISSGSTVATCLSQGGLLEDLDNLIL

In the case of AGUUGUUAGUCUACGUGGAC (ssRNA) [ssRNA 20-mer], the binding result is “binds”.

On to AGTTGTTAGTCTACGTGGAC (ssDNA) [ssDNA 20-mer], for which the binding result is on record as “binds”.
